Experimental data from patent publication US20100022453A1.

What was measured:
[1] = biological target: mouse NgR1, endogenous in acute hippocampal slices (mouse) (UniProt Q99PI8); experiment: cell-based or functional assay
[2] = biological target: rat NgR1 (Nogo-66 receptor), full-length, expressed on cells (rat) (UniProt Q99M75); experiment: cell-based or functional assay
Sequence of rat NgR1 (Nogo-66 receptor), full-length, expressed on cells (rat) (Q99M75 27-447 limits assumed): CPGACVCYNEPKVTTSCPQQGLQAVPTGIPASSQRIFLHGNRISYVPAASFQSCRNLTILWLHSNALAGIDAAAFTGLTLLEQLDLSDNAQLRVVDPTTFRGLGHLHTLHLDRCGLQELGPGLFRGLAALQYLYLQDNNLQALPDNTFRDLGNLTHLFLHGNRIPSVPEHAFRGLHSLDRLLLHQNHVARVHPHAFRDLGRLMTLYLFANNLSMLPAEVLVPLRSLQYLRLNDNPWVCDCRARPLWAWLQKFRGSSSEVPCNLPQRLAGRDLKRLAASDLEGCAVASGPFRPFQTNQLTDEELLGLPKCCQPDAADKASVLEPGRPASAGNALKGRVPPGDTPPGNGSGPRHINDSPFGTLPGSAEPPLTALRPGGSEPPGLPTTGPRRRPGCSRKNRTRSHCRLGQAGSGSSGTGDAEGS

Sequence of mouse NgR1, endogenous in acute hippocampal slices (mouse) (Q99PI8 27-447): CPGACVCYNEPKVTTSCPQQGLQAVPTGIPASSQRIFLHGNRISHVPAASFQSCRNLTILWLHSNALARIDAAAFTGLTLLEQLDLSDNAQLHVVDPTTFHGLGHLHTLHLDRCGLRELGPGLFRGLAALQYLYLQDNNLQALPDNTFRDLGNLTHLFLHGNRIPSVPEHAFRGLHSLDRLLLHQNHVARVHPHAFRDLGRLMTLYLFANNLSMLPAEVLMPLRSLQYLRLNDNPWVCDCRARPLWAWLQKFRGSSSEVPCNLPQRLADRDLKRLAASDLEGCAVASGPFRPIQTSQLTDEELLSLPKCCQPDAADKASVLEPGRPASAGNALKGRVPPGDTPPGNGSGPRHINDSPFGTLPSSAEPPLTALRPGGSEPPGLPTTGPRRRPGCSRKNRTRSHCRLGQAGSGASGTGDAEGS

HFS-induced LTP at Schaffer collateral-CA1 synapses, mean fEPSP % of baseline, NgR1 null slices with FGF2 (10 µg/ml) (% of baseline) [1]: 165
HFS-induced LTP at Schaffer collateral-CA1 synapses, mean fEPSP % of baseline, wild-type slices with FGF2 (10 µg/ml) (% of baseline) [1]: 139
percentage of cells with processes longer than two cell bodies in diameter, PC12^NgR1 line NgR1-1, 25 ng/ml FGF2 [2]: 5.6%
percentage of cells with processes longer than two cell bodies in diameter, PC12^NgR1 line NgR1-2, 25 ng/ml FGF2 [2]: 7.2%
percentage of cells with processes longer than two cell bodies in diameter, control PC12 cells (very low endogenous NgR1), 25 ng/ml FGF2 [2]: 19.8%
Substance: FGF2 (Peprotech), unlabeled (ligand)
